Assay results from FireProtDB (doi:10.1021/bi962163z).

Settings: Homo sapiens, Thermal, DSC, reversible: no, whole UniProt chain shown

B1: Annexin A5 wild type, P08758 (protein)
chain: MAQVLRGTVTDFPGFDERADAETLRKAMKGLGTDEESILTLLTSRSNAQRQEISAAFKTLFGRDLLDDLKSELTGKFEKLIVALMKPSRLYDAYELKHALKGAGTNEKVLTEIIASRTPEELRAIKQVYEEEYGSSLEDDVVGDTSGYYQRMLVVLLQANRDPDAGIDEAQVEQDAQALFQAGELKWGTDEEKFITIFGTRSVSHLRKVFDKYMTISGFQIEETIDRETSGNLEQLLLAVVKSIRSIPAYLAETLYYAMKGAGTDDHTLIRVMVSRSEIDLFNIRKEFRKNFATSLYSMIKGDTSGDYKKALLLLCGEDD
- Tm (pH 4, Sodium phosphate 20 mM): 40.6 °C
- unfolding enthalpy (calorimetric) (pH 4, Sodium phosphate 20 mM): 128 kcal/mol
- unfolding enthalpy (van 't Hoff) (pH 4, Sodium phosphate 20 mM): 151 kcal/mol
- Tm (pH 6, Sodium phosphate 20 mM): 50.5 °C
- unfolding enthalpy (calorimetric) (pH 6, Sodium phosphate 20 mM): 147 kcal/mol
- unfolding enthalpy (van 't Hoff) (pH 6, Sodium phosphate 20 mM): 174 kcal/mol
- Tm (pH 7, Sodium phosphate 20 mM): 53.4 °C
- unfolding enthalpy (calorimetric) (pH 7, Sodium phosphate 20 mM): 163 kcal/mol
- unfolding enthalpy (van 't Hoff) (pH 7, Sodium phosphate 20 mM): 189 kcal/mol
- Tm (pH 8, Sodium phosphate 20 mM): 54.4 °C
- unfolding enthalpy (calorimetric) (pH 8, Sodium phosphate 20 mM): 162 kcal/mol
- unfolding enthalpy (van 't Hoff) (pH 8, Sodium phosphate 20 mM): 199 kcal/mol
- Tm (pH 8, Tris 50 mM, KCl 100 mM): 52.5 °C
- unfolding enthalpy (calorimetric) (pH 8, Tris 50 mM, KCl 100 mM): 163 kcal/mol
- unfolding enthalpy (van 't Hoff) (pH 8, Tris 50 mM, KCl 100 mM): 190 kcal/mol
